The supplement of paper PMC10126150
± gives the standard deviation of the averaged measurements.

Tested on: ATP
Experiment: switch fluorescence ratio, 500 uM ATP over buffer (Cy3 cluster intensity, sum of 5 cycles each) (fold (ratio)); higher = stronger signal-on switching upon ATP binding; sequences stand for … in TCGTCGGCAGCGTCAGATGTGTATAAGAGACAGTTTTTTTTTTTTTTTTTTTTTTTTT…TC
Conditions: aptamer strand: ATP DNA aptamer (quencher-CACCTGGGGGAGTATTGCGGAGGAAGG + anchor), 100 nM annealed; ATP concentration: 500 uM
Procedure, shortened: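 The fluorescence ratio divides summed target-cycle Cy3 intensity by summed buffer-cycle Cy3 intensity for each cluster and is averaged per switch-domain sequence. Cy3-labelled switching-strand clusters on a modified Illumina MiSeq flow-cell were annealed to 100 nM quencher-labelled ATP aptamer, then imaged in selection buffer and again after 15 min with 500 uM ATP at 22 °C. Five such cycles were run, with NaOH stripping and re-annealing between them, and clusters outside 100-1000 RFU were excluded.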
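Further: ATP exposure 15 min at 22 °C before imaging.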

Sequence	switch fluorescence ratio
ACCTTGATGG	0.976 ± 0.077
TTCGGGGGTT	1.01 ± 0.051
GGGTGGGGGA	1.03 ± 0.028
ATAATACGGG	1.03 ± 0.017
GAGGGTGTGT	0.979 ± 0.038
TTGTATTGCC	1.02 ± 0.018
CGGAGTGGTT	1 ± 0.017
CATTAGTCTC	1.02 ± 0.053
ATATCTTTCT	1.006 ± 0.0023
ATAAGCGATT	1.03 ± 0.024
TGAGCCCGCT	1 ± 0.016
ATTGCGGGCA	0.982 ± 0.035
TAGGATGGTG	1.03 ± 0.11
ATCGGGTCGA	1 ± 0.023
ACATCCATTT	1.02 ± 0.05
TAGGGATTCC	1.014 ± 0.0079
TAGAAGTATT	1.01 ± 0.027
GTATATATAG	1.02 ± 0.03
CCAAGAGGGC	1.04 ± 0.023
CCGGGGGTTA	1.14 ± 0.23
GAGAAGGGGG	1.04 ± 0.049
TGCTTTTATT	1 ± 0.022
GGCATTACTA	1.21 ± 0.022
AGTTCATCTT	0.964 ± 0.015
CATGTGATGG	1.06 ± 0.044

Sequence	switch fluorescence ratio
TTAAAACCCC	1.04 ± 0.054
CGATATCGC	1.03 ± 0.014
TTTAGTACTG	1.05 ± 0.032
GTGGGGTACT	0.9612 ± 0.0055
GGGATTGGTT	0.999 ± 0.047
AAACTTTCTT	1.03 ± 0.021
TTCTGTGCGG	0.978 ± 0.029
GACGGCAATG	1.05 ± 0.032
TACCCAGGGA	1.64 ± 0.13
CTCTAGGGGG	1.05 ± 0.028
AGGGGGCTAT	1.02 ± 0.015
AAAATGGAGG	1.005 ± 0.0049
TTGCCGATAC	2.16 ± 0.12
CTGTGGTTTT	0.98 ± 0.034
TACAGGGTCG	1.13 ± 0.049
GATAGCGCAG	1.01 ± 0.063
CTCGGGGTGC	1.036 ± 0.004
TTCCGTTTGA	1.24 ± 0.42
GGGCCAGGGT	1.02 ± 0.0054
GGGAGTGGGA	1.01 ± 0.011
CTTTACTTCG	1.07 ± 0.027
CATGGGCGGG	0.983 ± 0.022
GGTAGACCGC	0.987 ± 0.053
TTTTCGGGGC	0.981 ± 0.035
CGGTGGTGGC	1.13 ± 0.015

Sequence	switch fluorescence ratio
TTTTCTCTAG	1.01 ± 0.055
AGGGGGGGTG	1.05 ± 0.11
CGAGGGTATG	1.01 ± 0.027
TTTTGCATTC	1.1 ± 0.053
CCTATGGTTG	0.997 ± 0.033
CGATGTTGAG	1.002 ± 0.01
GCTTGGGTAT	1.02 ± 0.062
TCTGCCTAGG	1.13 ± 0.075
TCATTATGGA	0.989 ± 0.014
CGCGACGAGT	0.9823 ± 0.0053
TGGTTCAGCC	0.9868 ± 0.0033
CGGTTTTCAT	0.984 ± 0.019
TGAGGATCCA	0.985 ± 0.013
TGCCTCGGCG	1.0022 ± 0.00021
TATGTATTTT	1.02 ± 0.055
GCCCACTATT	0.988 ± 0.01
CGGCTAGGTC	1.03 ± 0.012
CGGGATCTGG	0.977 ± 0.015
TGATTCTTCG	1.01 ± 0.023
TTAGAATGTA	0.99 ± 0.023
TACCAAAAAA	1.2 ± 0.18
TCCGGGCGGA	1.01 ± 0.021
GTAGCTCTTA	1.04 ± 0.019
CAGGAGTACA	1.03 ± 0.012
AATATAGGTA	1.02 ± 0.011

Sequence	switch fluorescence ratio
CCTAGGGGGG	1.17 ± 0.23
TAGGGTCATA	1.04 ± 0.077
ATAAGCTGGT	0.953 ± 0.021
ATGTCGAGGT	1.01 ± 0.035
ACTGGGGGTA	1.01 ± 0.025
TTTATGATTA	1.035 ± 0.005
TTATATTTCG	1 ± 0.032
CTCGTACGAG	1.02 ± 0.021
AGTAGCAGCG	0.963 ± 0.04
GCACTCGGTG	1.01 ± 0.048
CGTTGCGAGT	0.9726 ± 0.009
ATAGTGGTGG	1.01 ± 0.052
ACTGGCTCCT	1.02 ± 0.056
GGGGCTATCA	0.9712 ± 0.0081
GCCGGTCGTC	1.0461 ± 0.00046
GAAATTGCGG	0.989 ± 0.024
CGTTCGTGGG	0.953 ± 0.018
TATGCTTGA	0.986 ± 0.036
ACTGTTGGGG	0.999 ± 0.02
GTTTTCCGGG	1.01 ± 0.027
TAATCGGCCT	1.04 ± 0.05
GCTGTTGGCA	1.01 ± 0.025
AGGGGCCGGG	1.05 ± 0.12
ATATTGTGGG	0.987 ± 0.023
TCTATGGGAC	1.05 ± 0.013

Sequence	switch fluorescence ratio
TCAGAAGTAA	1.317 ± 0.0066
TTAGTTGGGG	1.01 ± 0.032
TTCACTCCGG	1.2 ± 0.071
TCGTTGTGAG	1.004 ± 0.0089
TATTTGGGGT	0.999 ± 0.027
GGGTGGCAGG	1.01 ± 0.013
TTTCATTTGG	1.01 ± 0.03
CAGGTCGTT	1.01 ± 0.054
TGATTCTAAG	0.977 ± 0.019
TTGTGATTGT	1.01 ± 0.016
ATAACACATG	1.01 ± 0.032
CGGATCGTGG	0.987 ± 0.021
ACTTCCGTTC	1.35 ± 0.017
CGTCCAGTTC	1.08 ± 0.023
ATTTAGGACA	1.01 ± 0.021
AAATTTGGCT	0.992 ± 0.071
TACGTGGGTT	0.994 ± 0.051
TATTTCATTC	1.03 ± 0.041
TGTAATTTGT	1 ± 0.027
TTAAACCTCT	1 ± 0.019
ATATCATCTC	1.002 ± 0.0063
GAGATACATG	1.02 ± 0.044
GATCTGGATA	0.9964 ± 0.0013
CAAATTAGGA	0.9764 ± 0.0073
GTTTTATTGA	0.986 ± 0.015

Sequence	switch fluorescence ratio
GGCGGATATG	1.009 ± 0.0097
TCCGGGGTAA	1.37 ± 0.51
TTTTGAGGGT	0.99 ± 0.023
GGGTCTCATT	0.981 ± 0.022
GTCGTCCTGT	0.9884 ± 0.0083
AGTTTGGGTT	1.01 ± 0.073
GCCGCGCGCT	1 ± 0.082
CACAGTAAAC	1.25 ± 0.11
CTATTAATGA	1.03 ± 0.057
AGGTTTGTGA	0.995 ± 0.029
CGGGTCGAAA	0.982 ± 0.049
CGTTTCATTT	0.995 ± 0.027
ATAAATCGAT	1.023 ± 0.0018
AGGGGGGCCC	1 ± 0.037
ATAATATGGT	0.9838 ± 0.0036
GCTAACTTTT	1.03 ± 0.021
TTGCATAGGG	1.02 ± 0.023
AATAGTTTCA	1.01 ± 0.014
TAAGGTTGCA	0.983 ± 0.032
CCAGATATGG	1.01 ± 0.041
AGCAAATAGT	1.28 ± 0.028
GGTCTCTTTG	0.9663 ± 0.0084
TATGTGCTTG	0.991 ± 0.021
GATTAAGAAT	1 ± 0.027
GATGTGTCCG	0.956 ± 0.086

Sequence	switch fluorescence ratio
TGAGAGGTGG	1 ± 0.036
ACAGGTCTGT	0.9797 ± 0.0047
TTTTTTTATC	1.01 ± 0.027
CATTTATAAA	0.992 ± 0.011
CTCATGGTTG	0.9638 ± 0.007
TACAGCTTAA	1.022 ± 0.0019
TGTACGGATT	1.0016 ± 0.00058
GAGTAAAGGG	0.9992 ± 0.0019
GGGATTTGCA	0.9758 ± 0.0075
CCGTCGGCGC	1.08 ± 0.019
GATTATATGG	1 ± 0.039
TGGGTCAATG	0.9822 ± 0.0078
ATTGATATGG	0.981 ± 0.04
GAGGGAGCGT	1.002 ± 0.0083
TCGGGGGTGT	1.02 ± 0.029
CAGCTATGTG	0.973 ± 0.011
TGTCGGAGAT	0.987 ± 0.018
GGGTAGTCCG	0.9937 ± 0.007
TGGGATAACT	0.99 ± 0.038
CAGTGATACG	1.16 ± 0.036
ATATGTCTAG	0.989 ± 0.01
TGGATTTTTT	0.996 ± 0.036
ATGGTGTAGC	0.986 ± 0.016
AATTGAAGAT	1.03 ± 0.039
GGACTGCGGT	0.979 ± 0.022

Sequence	switch fluorescence ratio
ATTGTGGTTT	1.01 ± 0.034
AGATATGAAC	1.04 ± 0.044
GGCACATAAG	1.012 ± 0.0033
GAGTATGCGC	0.996 ± 0.017
AAAGGGTGCG	1.03 ± 0.017
TTGCGGGAAC	1.07 ± 0.063
AGTGGGAAAG	0.965 ± 0.027
GCATAAGGGG	0.992 ± 0.018
GGGTGGGCCT	0.989 ± 0.042
GCCGGCAAAT	0.995 ± 0.051
GGCGGGGGGA	1.01 ± 0.032
TTTGAAGGAA	0.986 ± 0.017
GAGTTTGGTA	0.96 ± 0.027
TCGGGGAGCG	0.949 ± 0.042
GTTTGTCCTG	1.007 ± 0.0071
TTATCTGGGG	1.01 ± 0.055
GTTTGATGAA	0.994 ± 0.084
ATAGTTTACT	1.01 ± 0.024
TTTCCCGTTG	1.07 ± 0.12
GGCAGCTGGA	0.9578 ± 0.0072
TTGATGCCGG	1.05 ± 0.049
CCACTTACGG	1.6327 ± 0.00046
GACAGCAAAT	1.406 ± 0.0043
GGCACAAAAG	0.983 ± 0.019
GAAAAAATGT	0.967 ± 0.028
